Tests used:
[1] = biological target: E2 domain of amyloid precursor protein (APP), construct APP_(346–548), native (human) (UniProt P05067); test: AUC
[2] = biological target: the molecule itself; test: crystal structure

E2 domain of amyloid precursor protein (APP), construct APP_(346–548), native (from UniProt P05067-8 346-548) (domain or fragment)
Kd [1]: 9.2 µM
stoichiometry N [1]: 2

B1: E2 domain of APLP1, construct APLP1_(285–499) (crystallised) (domain or fragment, human, UniProt P51693 285-499, looked up)
chain: TPTPRPTDGVDIYFGMPGEISEHEGFLRAKMDLEERRMRQINEVMREWAMADNQSKNLPKADRQALNEHFQSILQTLEEQVSGERQRLVETHATRVIALINDQRRAALEGFLAALQADPPQAERVLLALRRYLRAEQKEQRHTLRHYQHVAAVDPEKAQQMRFQVHTHLQVIEERVNQSLGLLDQNPHLAQELRPQIQELLHSEHLGPSELEAPA
binding result [2]: binds

Reference: article PMC3120129 (Biochemistry, 2011)
